Two molecules from patent US12331106B2, “Anti-angiopoietin-2 antibodies that induce Tie2 activation” (Institute for Basic Science, priority 2018, dated 2025) can be followed below.

The test system of test [1] is LLC (Lewis Lung Carcinoma) tumor. The test is described as follows: Tumor growth inhibition in LLC subcutaneous model. The format is in vivo, C57BL/6 mice. As to conditions: LLC s.c.; antibody 10 mg/kg i.p. every 2-3 days; Cpt 3 mg/kg i.p. once. The method, then: 2C8H11 anti-Ang2 antibody was tested for its ability to inhibit tumor growth in LLC (Lewis Lung Carcinoma) cell line tumor model. Specifically, LLC cell line (ATCC) was cultured in DMEM (GIBCO™) supplemented with 10% FBS (GIBCO™). LLC cells (1×10^6 in 100 μl of PBS) were subcutaneously injected into 6˜8-week-old C57BL/6 mice (Jackson Laboratory) which were anesthetized with a mixture of Ketamine and Xylazine. When the volume of the tumors reached 50˜100 mm^3, the mice were intraperitoneally administered with 10 mg/kg of 2C8H11 antibody every 2˜3 days. Cisplatin (Cpt) was injected intraperitoneally once at a dose of 3 mg/kg in both monotherapy and combination therapy groups. The changes in tumor volume was tracked over the following days. Tumor volume (V) was measured using the formula: V=(width^2×length)/2 V=(width^2×length)/2
The experiment was performed in 4 groups: Fc (control group), Fc+Cpt group, 2C8H11 group, and 2C8H11+Cpt group. […] Meanwhile, combined treatment with 2C8H11 and Cpt delayed tumor growth by 47% compared with Fc.

Test [2] has as its system Tie2 receptor. The test is described as follows: Tie2 phosphorylation in HUVECs (immunoprecipitation/Western). The test is classed as cell-based, human. The following applies: antibody 0.02-50 μg/ml with hAng2 1 μg/ml, 30 min. The protocol:
Ang2 binds to the Tie2 receptor and acts as a weak agonist or antagonist. The anti-Ang2 antibody developed in this invention binds to Ang2 to induce Ang2-antibody complexes, further causing clustering of Tie2 receptors and consequently enhancing activation of Tie2 receptor. Experiments were conducted to analyze the effect of anti-Ang2 antibody on Tie2 phosphorylation using HUVECs.
Specifically, HUVECs (LONZA™) were cultured in EGM-2 (LONZA™) at 37° C. and 5% CO2 concentration in a 100 mm culture dish. At 80-90% confluency, the cells were changed to EBM-2 (LONZA™) medium for 2 hrs˜ 6 hrs for serum starvation. Humanized anti-Ang2 antibodies at various concentrations (0.02 μg/ml to 50 μg/ml) were mixed with hAng2 protein (1 μg/ml, R&D® Systems) for 30 min. Then, the mixtures were treated with the cultured cells and further incubated for 30 min. The cells were washed twice with cold PBS and then lysed in 1000 μl of lysis buffer (10 mM Tris-Cl pH 7.4, 150 mM NaCl, 5 mM EDTA, 10% glycerol, 1% TRITON™ X-100 (non-ionic polyoxyethylene surfactant), protease inhibitor, phosphatase inhibitor) and then lysed at 4° C. for 60 min. Cell extracts were prepared and centrifuged at 12,000 rpm for 10 min. The supernatant was quantitated by bicinchoninic (BCA) assay.
To 0.5 mg of cell lysate, 1 μg of Tie2 antibody (R&D® Systems, AF313) was added and incubated overnight at 4° C. […]

Test [3] has as its target T1, hAng2 (Homo sapiens, UniProt O15123).
T1 sequence (O15123 19-496): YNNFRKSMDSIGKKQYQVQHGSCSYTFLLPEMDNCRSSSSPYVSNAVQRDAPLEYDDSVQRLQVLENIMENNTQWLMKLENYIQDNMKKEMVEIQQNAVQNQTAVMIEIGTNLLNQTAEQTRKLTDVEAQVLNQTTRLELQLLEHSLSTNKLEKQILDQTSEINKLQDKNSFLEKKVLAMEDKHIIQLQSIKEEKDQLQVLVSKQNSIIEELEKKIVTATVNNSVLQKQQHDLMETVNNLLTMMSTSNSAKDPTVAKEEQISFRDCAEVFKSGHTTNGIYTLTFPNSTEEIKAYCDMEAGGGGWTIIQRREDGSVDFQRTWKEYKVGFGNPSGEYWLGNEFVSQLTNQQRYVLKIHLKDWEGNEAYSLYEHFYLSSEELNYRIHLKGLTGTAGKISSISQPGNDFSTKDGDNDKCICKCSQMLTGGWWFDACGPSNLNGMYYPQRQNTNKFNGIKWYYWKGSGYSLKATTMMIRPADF
The test is described as follows: OCTET affinity of humanized anti-Ang2 antibodies against hAng2. The test is classed as binding. The following applies: humanized 4B9 antibodies (IgG1) fixed on AR2G biosensor; hAng2 50-0 nM.

The test system of test [4] is HUVEC monolayer. The test is described as follows: In vitro vascular permeability (leakage) assay, TNF-α induced, FITC-dextran. The test is classed as cell-based, human. As to conditions: HUVECs; pre-treatment antibody 1 μg/ml with Ang2 1 μg/ml 30 min; TNF-α 100 ng/ml 22 hr. The method, then:
Vascular leakage assay was carried out in HUVECs using In Vitro Vascular Permeability Assay Kit (Millipore®) according to the manufacturer's instruction. HUVECs were seeded into the insert of the transwell plate and cultured for 3 days for 100% confluence. The HUVECs were pre-incubated with Ang2 (1 μg/ml), Ang2 (1 μg/ml) together with Control, 2C8H11 or 4B9H11 antibody (1 μg/ml) for 30 min, and then TNF-α (100 ng/ml) was added, and the cells were incubated at 37° C. for 22 hr. FITC-dextran was added to the upper chamber and incubated for 20 min. Passage of FITC-dextran though the HUVEC monolayer was measured by a fluorescence reader at excitation and emission wavelengths of 485 and 535 nm, respectively.

Test [5] relates to Tie2 receptor clustering / FOXO1 translocation in HUVECs. The test is described as follows: Tie2 clustering and FOXO1 translocation in HUVECs (immunofluorescence). The test is classed as cell-based, human. The following applies: HUVECs, 30 min. The method, then:
Tie2 clustering at cell-cell junction area and FOXO1 translocation from nucleus to cytosol by anti-Ang2 antibodies were examined in HUVECs by immunofluorescence. Specifically, HUVECs were seeded on 8 well slide chamber (Lab-Tek™ II) and maintained in EGM-2 medium for 2-3 days. At 100% confluence, the cells were serum starved with EBM-2 medium for 4 hrs and then treated with 1 μg/ml anti-Ang2 antibodies together with 1 μg/ml of hAng2 for 30 min. Thereafter, the cells were fixed with 4% formaldehyde in PBS at room temperature (RT) for 10 min, permeabilized with 0.1% TRITON™ X-100 (non-ionic polyoxyethylene surfactant) in PBS, blocked with 1% BSA in PBS at RT for 60 min, and incubated with primary antibodies at RT for 1 hr. The primary antibodies for hTie2, FOXO1, and Human Fc were used. The cells were then incubated with secondary antibodies (Invitrogen) in the dark at RT for 1 hr and mounted with VECTASHIELD® mounting medium with DAPI (Vector Labs, antifade mounting media optimized for immunofluorescence applications). Images were taken with a laser scanning confocal microscope (LSM880, Carl Zeiss).
2C8H11-induced Tie2 clustering and FOXO1 translocation was examined in a time-course study (from 10 min to 240 min). […] 6-4: Inhibition of Vascular Permeability by Humanized Anti-Ang2 Antibodies

The subject of test [6] is downstream signaling of the Tie2 receptor (Akt phosphorylation) in HUVECs. The test is described as follows: Akt phosphorylation in HUVECs by humanized anti-Ang2 antibodies (immunoblot). The format is cell-based, human. The following applies: hAng2 1 μg/ml, 30 min, antibody 0.5 μg/ml, maintained until 50 μg/ml. The method, then:
To investigate whether the humanized anti-Ang2 antibodies induce the downstream signaling of the Tie2 receptor in endothelial cells, HUVECs (LONZA™) were treated with human Ang2 protein together with humanized anti-Ang2 antibody. Then, the level of Akt phosphorylation, the main downstream signaling protein of Tie2 receptor was measured by immunoblotting. To compare the degree of Akt activation, cells were treated with full-length hAng2 (R&D® Systems) alone or antibody alone in the experiment.
Specifically, HUVEC cells (1×10^5 cells/ml) were cultured in EGM-2 (LONZA™) at 37° C. in 60 mm culture dish. Cells of 90% confluency were incubated with EBM-2 (LONZA™) for 4 hrs. The serum-starved HUVECs were treated with the mixture of anti-Ang2 antibody and hAng2 protein (1 μg/ml, R&D® Systems), and further incubated for 30 min. The cells were washed with cold PBS, treated with lysis buffer, and lysed at 4° C. for 20 min. Then, the cell lysates were prepared by centrifugation at 13000 rpm for 15 min. 5× SDS sample buffer was added to the cell lysate and the mixture was boiled at 95° C. for 5 min. Then, the mixture was subjected to SDS-PAGE and subsequent Western blotting.
To investigate the phosphorylation of Akt, the membrane was blocked with 5% skim milk-containing TBST for 1 hr at RT, and incubated with anti-phospho-Akt antibody (S473) at 4° C. for about 8 hrs. […]
Background: A western blot detects proteins with antibodies after separation by electrophoresis.

With `N.N.[Cl][Pt][Cl]` [Fc+Cpt, Cisplatin, reference compound], in test [1], the “tumor growth inhibition compared with Fc” value is listed as “similar”.

B1: 4B9H11: humanized anti-Ang2 human IgG1 antibody from mouse 4B9; VH SEQ ID NO: 43, VL SEQ ID NO: 44 (antibody, V domains shown)
VH: QVQLVESGGGLVKPGGSLRLSCAASGFTFSDYYMYWIRQAPGKGLEWVSTISVGGSFTYYPDSVKGRFTISRDNAKNSLYLQMNSLRAEDTAVYYCARDWGLRPWFVYWGQGTLVTVSS
VL: DIQMTQSPSSLSASVGDRVTITCKASQDVSTAVAWYQQKPGKAPKLLIYWASTRHTGVPSRFSGSGSGTDFTLTISSLQPEDFATYYCQQHYSTPPTFGQGTKVEIK
modifications: human IgG1 constant regions; VH; VL
For B1, the “phosphorylation of Tie2” value in test [2] is “strongly induced in a dose-dependent manner”. In test [3], the “Kdis” value is 1.58e-06 s⁻¹ and the “Kon” value was 92900 M⁻¹ s⁻¹. In addition, the “vascular leakage induced by TNF-α (passage of FITC-dextran)” value in test [4] is listed as “significantly inhibited”. Also, the “co-localization of antibody with Tie2 receptor” value in test [5] (anti-human Fc staining) was “co-localized with clustered Tie2 receptor at cell-cell contact and endocytosed Tie2 receptor in cytosol”. Further, the “Tie2 translocation/clustering to cell-cell contact” value in test [5] (antibodies 1 μg/ml with hAng2 1 μg/ml) is given as “induced Tie2 translocation/clustering to cell-cell contact”. For the same molecule, the “FOXO1 translocation from nucleus to cytosol” value in test [5] (compared to serum-starved control) is listed as “markedly disappeared in nucleus”. The Akt phosphorylation entry in test [6] is listed as “increased markedly”.
